# System: Ba/F3-P210 cells
# Assay: 7-AAD and Annexin V staining of protein-treated Ba/F3-P210 cells
# Format: cell-based, mouse
# Settings: proteins 30 μM, imatinib 2.5 μM; 48 hours post treatment
# Procedure: 0.5 μL of 1 mM 7-AAD (Invitrogen) was added to each sample, followed by a 45 minute incubation on ice. […] Analysis was performed using the FACS Canto-II (BD BioSciences, University of Utah Core Facility) with FACS Diva software. 7-AAD and APC were excited at 488 and 635 nm wavelengths, and emissions were detected at 660 nm. Percentage of apoptosis/necrosis was calculated by the percentage of cells that stained positive for 7-AAD and/or APC. Independent treatments were tested three times (n=3).
molecule,measurement,value
"CCmut3: modified Bcr-Abl coiled-coil domain (residues 1-72) with mutations C38A, K39E, S41R, L45D, E48R, Q60E (protein) MVDPVGFAEAWKAQFPDSEPPRMELRSVGDIEQELERAEARIRRDEQRVNQERFRMIYLETLLAKEKKSYDR",induction of apoptosis/necrosis,not statistically different from the untreated control
